Biological target: Tenascin-C (Homo sapiens) (UniProt P24821)
Assay: filter
Details: 2'-F all C and U; 2'-OMe all A and G except G1,G9,G28,G31,G34 (TN9 numbering) 2'-OH; (CH2CH2O)6 spacer replaces nt 10-26 (n in SEQ 64); 5' hexylamine; 3'-3' dT cap

Tenascin-C (Homo sapiens), sequence (P24821 23-2201): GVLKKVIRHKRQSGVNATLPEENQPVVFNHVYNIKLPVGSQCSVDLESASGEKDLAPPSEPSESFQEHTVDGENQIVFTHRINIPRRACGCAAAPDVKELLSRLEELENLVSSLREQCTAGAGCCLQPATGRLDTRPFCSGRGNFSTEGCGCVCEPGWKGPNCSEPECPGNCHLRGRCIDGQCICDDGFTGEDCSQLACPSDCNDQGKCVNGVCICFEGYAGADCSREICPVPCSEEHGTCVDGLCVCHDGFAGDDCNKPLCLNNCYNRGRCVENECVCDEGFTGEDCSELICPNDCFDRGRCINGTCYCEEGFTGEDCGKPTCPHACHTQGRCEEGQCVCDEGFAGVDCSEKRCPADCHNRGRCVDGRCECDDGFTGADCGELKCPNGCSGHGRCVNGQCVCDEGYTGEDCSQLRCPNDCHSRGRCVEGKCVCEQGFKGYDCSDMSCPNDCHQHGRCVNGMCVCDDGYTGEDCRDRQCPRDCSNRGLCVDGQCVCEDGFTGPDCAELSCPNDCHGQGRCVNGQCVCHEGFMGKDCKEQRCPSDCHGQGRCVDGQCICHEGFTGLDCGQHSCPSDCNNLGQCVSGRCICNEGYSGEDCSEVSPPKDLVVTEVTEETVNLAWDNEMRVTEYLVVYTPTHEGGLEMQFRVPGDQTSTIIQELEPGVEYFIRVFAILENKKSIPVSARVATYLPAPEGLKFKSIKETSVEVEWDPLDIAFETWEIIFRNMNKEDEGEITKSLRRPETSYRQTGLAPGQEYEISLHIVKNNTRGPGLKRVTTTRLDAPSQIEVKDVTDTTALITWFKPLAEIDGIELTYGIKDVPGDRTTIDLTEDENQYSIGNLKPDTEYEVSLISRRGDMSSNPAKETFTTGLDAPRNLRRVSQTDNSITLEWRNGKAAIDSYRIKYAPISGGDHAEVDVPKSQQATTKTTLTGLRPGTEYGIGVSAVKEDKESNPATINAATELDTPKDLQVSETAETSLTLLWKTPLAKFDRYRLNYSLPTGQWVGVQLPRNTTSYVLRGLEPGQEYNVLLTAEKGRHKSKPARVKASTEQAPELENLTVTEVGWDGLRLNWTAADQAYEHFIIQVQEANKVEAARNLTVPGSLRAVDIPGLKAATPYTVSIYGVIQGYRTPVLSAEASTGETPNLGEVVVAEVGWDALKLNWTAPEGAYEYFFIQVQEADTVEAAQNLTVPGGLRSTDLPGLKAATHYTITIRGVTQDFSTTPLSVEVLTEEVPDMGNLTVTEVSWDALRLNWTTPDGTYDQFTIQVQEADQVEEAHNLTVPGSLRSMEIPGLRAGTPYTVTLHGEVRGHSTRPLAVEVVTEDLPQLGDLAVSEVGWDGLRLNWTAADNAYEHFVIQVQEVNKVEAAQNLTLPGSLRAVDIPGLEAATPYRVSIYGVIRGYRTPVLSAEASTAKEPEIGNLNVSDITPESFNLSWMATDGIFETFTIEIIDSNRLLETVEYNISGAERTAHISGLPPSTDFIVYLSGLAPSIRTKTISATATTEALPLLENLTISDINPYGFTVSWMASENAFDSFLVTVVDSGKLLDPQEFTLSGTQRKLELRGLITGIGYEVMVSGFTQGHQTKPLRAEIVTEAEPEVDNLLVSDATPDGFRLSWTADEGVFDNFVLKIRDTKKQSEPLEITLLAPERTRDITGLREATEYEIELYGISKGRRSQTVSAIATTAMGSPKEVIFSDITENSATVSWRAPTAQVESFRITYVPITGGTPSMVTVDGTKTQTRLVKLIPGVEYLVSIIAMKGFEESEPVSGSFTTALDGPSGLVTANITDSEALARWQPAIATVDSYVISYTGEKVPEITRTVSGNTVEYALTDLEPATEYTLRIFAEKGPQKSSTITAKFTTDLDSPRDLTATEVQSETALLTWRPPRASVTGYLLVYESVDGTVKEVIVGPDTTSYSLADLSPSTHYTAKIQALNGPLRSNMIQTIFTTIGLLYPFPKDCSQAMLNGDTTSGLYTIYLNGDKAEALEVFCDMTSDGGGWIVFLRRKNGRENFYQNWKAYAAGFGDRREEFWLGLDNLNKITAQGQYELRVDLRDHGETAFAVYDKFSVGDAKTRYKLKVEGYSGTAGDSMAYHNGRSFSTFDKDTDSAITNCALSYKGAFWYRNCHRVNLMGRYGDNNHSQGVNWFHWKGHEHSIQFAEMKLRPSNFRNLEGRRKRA

GGGAGGACGNCGUCGCCGUAAUGGAUGUUUUGCUCCCUG [TTA1 (GS7641)]
Kd: 5 nM

— patent publication US20060105378
